# Laboratory results published in US20250136696A1 (HARBOUR BIOMED SHANGHAI, published 2025).
# Changes are numbered by the printed parent chain.
# B1: PR003251 (antibody, human IgG1, kappa, V domains shown)
# VH: QVQLVESGGGVVQPGRSLRLSCAVSGFTFSRYGMHWVRQAPGKGLDWVAVIWYNGNNKYYTDSVKGRFTISRDNSKNTLFLQMNSLRAEDTAVYYCARDGAYSYGPFDYWGQGTLVTVSS
# VL: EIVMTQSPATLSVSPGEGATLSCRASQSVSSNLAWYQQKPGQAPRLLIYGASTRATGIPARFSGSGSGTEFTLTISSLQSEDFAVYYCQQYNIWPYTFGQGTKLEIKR
# notes: Human IgG1; also called 29F2C8
# B2: PR003254 (antibody, human IgG1, kappa, V domains shown)
# VH: B1 VH with V24A, R31S, D46E, V50D, T61A, F80Y, V93L, A101G
# VL: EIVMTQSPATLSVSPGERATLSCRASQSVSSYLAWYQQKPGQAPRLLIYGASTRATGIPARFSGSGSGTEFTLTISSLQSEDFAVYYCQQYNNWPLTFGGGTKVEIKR
# notes: Human IgG1; also called 59D6D2
# B3: PR003262 (antibody, human IgG1, kappa, V domains shown)
# VH: B1 VH with V24A, M34I, D46E, N56R, T61V, F80Y, A101G
# VL: EIVMTQSPATLSVSPGERATLSCRASQSFSNNLAWYQQKPGQAPRLLIYGASTRATGIPARFSGSGSGTEFTLTISSLQSEDFAVYYCHQYNIWPLTFGGGTKVEIKR
# notes: Human IgG1; also called 77D5A4
# B4: PR003260 (antibody, human IgG1, kappa, V domains shown)
# VH: QVQLVESGGGVVQPGRSLRLPCAASGFTFSRYGMHWVRQAPGKGLEWVADIWYDGSKKYYADSVKGRFTISRDNSKNTLYLQMNSLRAEDTAVYFCTRDGGYSYGPFDYWGQGTLVTVSS
# VL: B3 VL with F29V, N31S, G50Y, T56P, G66E, H89Q, L96Y, G100Q, V104L
# notes: Human IgG1; also called 70F3B1
# B5: PR003263 (antibody, human IgG1, kappa, V domains shown)
# VH: QVQLVESGGGVVQPGRSLRLSCAASGFTFSYYGLNWVRQAPGKGLEWVAVIWFDGTNKYYADSVKGRFTISRDDSKNTLYLQMNSLRAEDTAVYYCARGYGSGSYYNYVMDAWGQGASVTVSS
# VL: B3 VL with F29V, N31S, R54G, E70D, H89Q, N92Y, I93K
# notes: Human IgG1; also called 77E6C4
# B6: PR003264 (antibody, human IgG1, kappa)
# heavy: not shown
# light: DIQLTQSPSFLSASVGDRVTITCRASQGISSYFAWYQQKPGKAPKLLIYAASTLQSGVPSRFSGSGSGTEFTLTISSLQPEDFATYYCQHLNRYPWTFGQGTKVEIKRTVAAPSVFIFPPSDEQLKSGTASVVCLLNNFYPREAKVQWKVDNALQSGNSQESVTEQDSKDSTYSLSSTLTLSKADYEKHKVYACEVTHQGLSSPVTKSFNRGEC
# notes: Human IgG1; also called 77G10D3
# Molecular target: T1, human B7-H7 recombinant protein (human, UniProt Q9UM44 23-344)
# T1 construct: also called human B7-H7 protein
# T1 sequence (looked up): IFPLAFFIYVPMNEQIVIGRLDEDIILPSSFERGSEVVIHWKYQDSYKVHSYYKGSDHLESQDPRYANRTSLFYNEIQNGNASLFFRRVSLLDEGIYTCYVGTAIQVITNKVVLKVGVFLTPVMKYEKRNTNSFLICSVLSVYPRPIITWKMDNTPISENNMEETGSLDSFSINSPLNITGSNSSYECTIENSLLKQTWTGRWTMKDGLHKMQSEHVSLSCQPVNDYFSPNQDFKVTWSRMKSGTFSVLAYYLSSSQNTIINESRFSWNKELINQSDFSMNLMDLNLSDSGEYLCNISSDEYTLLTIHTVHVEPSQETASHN
# Assay: BLI (Octet), antibody captured on AHC sensor, human B7-H7 in solution, 1:1 global fit
# Protocol: The binding kinetics between antigen and antibody was analyzed using an Octet Red 96e (Fortebio) molecular interaction analyzer by biolayer interferometry (BLI) technology.
# For determining the affinity of antibodies for antigens, the rotary speed of the sensor was set at 1000 rpm. AHC sensors (Fortebio, #18-5060) placed in one column were first equilibrated in a test buffer for 10 minutes, and then used to capture the anti-B7-H7 antibodies at a capture height of 0.7 nm; and after being equilibrated in the buffer for 120 s, the AHC sensors bound to human B7-H7 (concentrations: 50-3.125 nM and 0 nM) with 2-fold gradient dilution for 180 s and dissociated for 300 s. The AHC sensors were finally regenerated by immersing in a 10 mM glycine-hydrochloric acid solution with pH 1.5 to elute the protein bound to the sensors.
# For data analysis using Octet Data Analysis software (Fortebio, version 11.0), 0 nM well was used as the reference well, reference subtraction was performed, “1:1 Global fitting” method was selected for data fitting, the kinetic parameters of the binding of the antigen to the antigen-binding protein were calculated, and the kₒₙ (1/Ms) value, kdis (1/s) value and KD (M) value were obtained.
Binder,Kd,koff,kon
B1,6.7 nM,0.000632 s⁻¹,94300 M⁻¹ s⁻¹
B2,32.3 nM,0.00245 s⁻¹,75600 M⁻¹ s⁻¹
B3,1.55 nM,0.000117 s⁻¹,75500 M⁻¹ s⁻¹
B4,1.68 nM,0.000102 s⁻¹,61100 M⁻¹ s⁻¹
B5,5.44 nM,0.000441 s⁻¹,81100 M⁻¹ s⁻¹
B6,2.94 nM,0.000115 s⁻¹,39000 M⁻¹ s⁻¹

# Molecular target: T2, human B7-H7 on the cell surface (human, UniProt Q9UM44 23-414)
# T2 construct: whole, on cells; also called hB7-H7; hu B7-H7
# T2 sequence (looked up): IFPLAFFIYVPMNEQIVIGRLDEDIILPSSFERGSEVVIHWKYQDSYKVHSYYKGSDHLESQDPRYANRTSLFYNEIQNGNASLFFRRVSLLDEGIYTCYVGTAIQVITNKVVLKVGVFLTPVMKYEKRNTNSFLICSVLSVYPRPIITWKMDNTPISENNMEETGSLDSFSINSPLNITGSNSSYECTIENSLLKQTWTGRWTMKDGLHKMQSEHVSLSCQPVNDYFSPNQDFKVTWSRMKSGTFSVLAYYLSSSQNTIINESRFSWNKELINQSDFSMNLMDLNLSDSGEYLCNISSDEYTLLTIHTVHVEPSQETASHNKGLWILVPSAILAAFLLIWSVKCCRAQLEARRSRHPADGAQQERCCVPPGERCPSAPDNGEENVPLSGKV
# Assay: flow cytometry, HCC827 cells
# Protocol: (§1) This example was intended to study the in vitro activity of H2L2 monoclonal antibodies against human B7-H7 in binding to human/cynomolgus monkey B7-H7. Since homologous molecules of B7-H7 were not present in mice, the detection was not performed. […] The cells were adjusted to a cell density of 1×10⁶ cells/mL, respectively. The cells were seeded in a 96-well V-bottom plate (Corning, #3894) at 100 μL/well, and the antibody to be tested at 2× final concentration with 3-fold concentration gradient dilution was then added at 100 μL/well. The cells were incubated at 4° C. for 2 hours in the dark. After the incubation, the cells were rinsed twice by adding pre-chilled PBS containing 2% BSA at 100 μl/well, and centrifuged at 500 g at 4° C. for 5 minutes, and the supernatant was discarded. […] The cells were washed twice by adding pre-chilled PBS containing 2% BSA at 100 μL/well, and centrifuged at 500 g at 4° C. for 5 minutes, and the supernatant was discarded. Finally, the cells were resuspended in pre-chilled PBS containing 2% BSA at 200 μL/well, and the fluorescence signal values were read using an ACEA Novocyte3000 flow cytometer.
Binder,EC50,Maximum MFI
B1,0.0373 nM,53300 MFI
B2,0.192 nM,45900 MFI
B3,0.041 nM,54000 MFI
B4,0.0439 nM,53300 MFI
B5,0.0789 nM,53200 MFI
B6,0.618 nM,57000 MFI

# Molecular target: T3, biotinylated human B7-H7 protein (Acro Biosystems, B77-H82F5) (human, UniProt Q9UM44 23-344, biotinylated)
# T3 construct: Bought soluble protein; also called biotin-B7H7 protein
# T3 sequence (looked up): T1 sequence (looked up)
# Assay: BLI epitope competition on SA-captured biotinylated B7-H7; competitor (first antibody) PR003249
# Protocol: Epitope competition experiments were performed on the anti-B7-H7 antibodies using the ForteBio Octet Red96e platform with the same experimental buffer as described above. […] After being equilibrated in a buffer for 120 s, the sensors were immersed in various antibodies diluted to 100 nM for 240 s, and the final signal of the antibody binding to B7-H7 was recorded as the 100% signal for that antibody. Second step, epitope competition experiment: B7-H7 was captured using SA sensors at a capture height of 0.25 nm. The sensors were immersed in a first antibody (concentration: 100 nM) for 240 s, then the SA sensors were immersed in a mixture of the first antibody and a second antibody (final concentration of both antibodies: 100 nM) for 240 s, and the difference in signals before and after immersing the sensors in the mixture of the two antibodies was recorded as the signal for that antibody as the second antibody. The inhibition rate was calculated by the following equation, […]
row,Binder,Competitive inhibition rate (%)
1,B1,-6.54%
2,B2,-5.96%
3,B3,-2.6%
4,B4,-3.18%
5,B5,-0.324%
6,B6,109%

# Molecular target: T4, cynomolgus monkey B7-H7 on the cell surface (cynomolgus monkey)
# T4 construct: whole, on cells; also called cyno B7-H7
# Assay: flow cytometry, HEK-293/cyno B7-H7 cells
# Protocol: as §1
Binder,EC50,Maximum MFI
B1,0.522 nM,430000 MFI
B2,1.24 nM,389000 MFI
B3,0.59 nM,419000 MFI
B4,0.588 nM,447000 MFI
B5,0.556 nM,410000 MFI
B6,0.829 nM,290000 MFI

# Molecular target: T3, biotinylated human B7-H7 protein (Acro …)
# Assay: flow cytometry, blocking of biotinylated human B7-H7 binding to HEK-293/CD28H cells
# Protocol: This example was intended to study the in vitro blocking activity of human anti-B7-H7 antibodies against the binding of human B7-H7 to its receptor CD28H. […] The cells were adjusted to a cell density of 1×10⁶ cells/mL. […] The cells were incubated at 4° C. for 1 hour in the dark. […] The cells were rinsed twice by adding pre-chilled PBS containing 2% BSA at 100 μL/well, and were centrifuged at 500 g at 4° C. for 5 minutes, and the supernatant was discarded. A fluorescent secondary antibody (PE Streptavidin, BD, Cat #: 554061, 1:200) was added at 100 μL/well, and the cells were incubated at 4° C. for 30 minutes in the dark. The cells were washed twice by adding pre-chilled PBS at 200 μL/well, and centrifuged at 500 g at 4° C. for 5 minutes, and the supernatant was discarded. Finally, the cells were resuspended in pre-chilled PBS at 200 μL/well, and the fluorescence signal values were read using an ACEA Novocyte3000 flow cytometer. IC50 was calculated.
Binder,IC50,Maximum inhibition rate (%)
B1,1.24 nM,16.2%
B2,1.59 nM,27.4%
B3,3.37 nM,26.4%
B4,2.47 nM,20.4%
B5,1.7 nM,59.3%
B6,1.52 nM,101%
